Reference: patent US20250313625A1 (ELPISCIENCE SUZHOU BIOPHARMA, published 2025)

T1: human LAG3, full length, stably expressed on cells (human, UniProt P18627 23-525)
T1 construct: whole, on cells; also called CHOK1-human LAG3
T1 sequence (looked up): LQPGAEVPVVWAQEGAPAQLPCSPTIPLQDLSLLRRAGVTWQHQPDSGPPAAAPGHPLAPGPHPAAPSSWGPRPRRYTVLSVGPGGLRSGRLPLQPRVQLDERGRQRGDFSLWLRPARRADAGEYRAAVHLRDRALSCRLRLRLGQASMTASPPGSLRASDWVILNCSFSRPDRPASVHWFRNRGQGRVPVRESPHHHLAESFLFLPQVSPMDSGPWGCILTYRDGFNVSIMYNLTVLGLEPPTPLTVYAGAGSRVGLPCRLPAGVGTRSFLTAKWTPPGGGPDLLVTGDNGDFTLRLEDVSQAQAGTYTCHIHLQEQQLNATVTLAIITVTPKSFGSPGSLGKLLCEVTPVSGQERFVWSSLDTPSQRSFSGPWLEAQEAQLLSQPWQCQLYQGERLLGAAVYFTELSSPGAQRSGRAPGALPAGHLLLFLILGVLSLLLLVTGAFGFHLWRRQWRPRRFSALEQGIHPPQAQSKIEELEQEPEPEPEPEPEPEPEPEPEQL

T2: mFc tagged human LAG3 ECD recombinant protein (human, UniProt P18627 23-450)
T2 construct: extracellular domain; purchased from Biointron; not shown: mouse IgG Fc (mFc) tag
T2 sequence (looked up): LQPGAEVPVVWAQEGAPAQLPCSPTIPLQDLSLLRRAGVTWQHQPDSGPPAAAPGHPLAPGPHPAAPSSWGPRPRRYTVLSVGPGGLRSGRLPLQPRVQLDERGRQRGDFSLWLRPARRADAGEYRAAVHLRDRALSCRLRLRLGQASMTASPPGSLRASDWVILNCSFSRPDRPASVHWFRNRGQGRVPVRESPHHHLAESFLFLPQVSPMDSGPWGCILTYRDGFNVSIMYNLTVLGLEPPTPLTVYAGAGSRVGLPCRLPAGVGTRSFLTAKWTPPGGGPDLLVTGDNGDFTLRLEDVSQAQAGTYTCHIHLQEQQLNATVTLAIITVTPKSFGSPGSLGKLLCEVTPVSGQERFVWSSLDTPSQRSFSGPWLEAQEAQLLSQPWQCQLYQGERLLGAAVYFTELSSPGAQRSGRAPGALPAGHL

T3: human LAG3 (form used in Octet, Biacore and HDX-MS not given) (human, UniProt P18627 23-450, limits assumed)
T3 sequence (looked up): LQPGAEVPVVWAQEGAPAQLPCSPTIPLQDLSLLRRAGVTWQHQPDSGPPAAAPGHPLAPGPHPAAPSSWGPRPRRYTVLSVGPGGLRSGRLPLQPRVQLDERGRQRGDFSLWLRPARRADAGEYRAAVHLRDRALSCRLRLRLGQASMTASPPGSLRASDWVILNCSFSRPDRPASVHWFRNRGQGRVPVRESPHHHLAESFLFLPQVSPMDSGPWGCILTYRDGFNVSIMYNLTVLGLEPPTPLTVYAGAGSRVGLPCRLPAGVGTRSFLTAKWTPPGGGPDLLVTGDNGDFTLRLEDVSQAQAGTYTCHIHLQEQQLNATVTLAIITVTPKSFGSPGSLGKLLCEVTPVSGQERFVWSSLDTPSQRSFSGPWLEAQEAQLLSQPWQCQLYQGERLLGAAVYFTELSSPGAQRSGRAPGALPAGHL

T4: human LAG3 ECD recombinant protein (plate coated, tag not stated) (human, UniProt P18627 23-450)
T4 construct: extracellular domain
T4 sequence (looked up): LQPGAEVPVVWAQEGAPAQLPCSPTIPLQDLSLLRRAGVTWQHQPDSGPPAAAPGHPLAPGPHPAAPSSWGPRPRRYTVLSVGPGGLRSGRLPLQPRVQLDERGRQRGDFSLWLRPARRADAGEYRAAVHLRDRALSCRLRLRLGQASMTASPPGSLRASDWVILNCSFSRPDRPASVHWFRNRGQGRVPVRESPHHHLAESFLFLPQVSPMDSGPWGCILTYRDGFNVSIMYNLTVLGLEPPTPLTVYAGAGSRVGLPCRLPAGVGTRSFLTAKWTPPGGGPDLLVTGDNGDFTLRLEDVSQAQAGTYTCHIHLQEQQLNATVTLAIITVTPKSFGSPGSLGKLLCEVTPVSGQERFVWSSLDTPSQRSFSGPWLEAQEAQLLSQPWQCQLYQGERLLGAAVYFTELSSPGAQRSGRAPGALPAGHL

T5: LAG3 D1 domain extra loop peptide (biotin labelled (site not stated))
T5 peptide: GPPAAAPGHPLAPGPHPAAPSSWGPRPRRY


Experiments:
[1] = target: T1, human LAG3, full length, stably …; assay: FACS on CHOK1 cells stably expressing human LAG3
Description: (§1) MFI was detected and EC₅₀ was calculated using GraphPad Prism9.0.

[2] = target: T2, mFc tagged human LAG3 ECD recombinant …; assay: competitive FACS: mFc tagged human LAG3 ECD binding to MHC II on Raji cells
Description: Activity of the purified chimeric antibodies to block LAG3 and MHC II interaction was determined by competitive FACS assay. […] After washing, dye labeled anti-mouse Fc 2nd antibody (Sigma) was added and incubated at 37° C. for 1 hour. Fluorescence intensity was detected.

[3] = target: T3, human LAG3 (form used in Octet, Biacore …); assay: BLI (Octet), 1:1 fit
Description: (§2) The association and dissociation curves were fit with 1:1 binding model, and the Ka/Kd/KD values for each antibody were calculated.
as §2

[4] = target: T4, human LAG3 ECD recombinant protein …; assay: competitive ELISA format I: His-FGL1 binding to coated LAG3 ECD
[5] = target: T1, human LAG3, full length, stably …; assay: FACS on 293F cells stably expressing human LAG3
Description: Briefly the antibodies were incubated with 2×10⁵ target cells at 4° C. for 1 hour. After washing, fluorescence labeled anti-mouse IgG 2nd antibody (Life Technologies) was added and incubated at 4° C. for 1 hour. Geometric median fluorescence intensity (MFI) was detected and EC₅₀ was calculated using GraphPad Prism9.0.
as §1

[6] = target: T5, LAG3 D1 domain extra loop peptide; assay: ELISA format I: biotin labelled LAG3 D1 domain extra loop peptide on plate coated antibody; axis printed as Ab Conc. (nM)
Description: In ELISA binding assay of format I (FIG. 9A), biotin labelled LAG3 D1 domain extra loop peptide was incubated with ELISA microplate coated anti-LAG3 antibodies. After washing, HRP labeled anti-SA 2nd antibody (Sigma) was added and incubated at 37° C. for 1 hour. Then, 100 μl/well of TMB solution (Biotechnology) was added. After incubation for 15 minutes at room temperature, the reaction was stopped by the addition of 50 μl of 1N HCl. OD 450 nm was read. In ELISA binding assay of format II (FIG. 9B), biotin labelled LAG3 D1 domain extra loop peptide and anti-LAG3 antibodies were co-incubated in ELISA microplate coated with SA. After washing, HRP labeled anti-human Fc 2nd antibody (Sigma) was added and incubated at 37° C. for 1 hour. Then, 100 μl/well of TMB solution (Biotechnology) was added. After incubation for 15 minutes at room temperature, the reaction was stopped by the addition of 50 μl of 1N HCl. OD 450 nm was read.

| EC50 [1] [nM] | TOP MFI [1] | %Blocking at 2 nM [2] [%] | %Blocking at 4 nM [2] [%] | %Blocking at 8 nM [2] [%] | Kd [3] [nM] | koff [3] [s⁻¹] | kon [3] [M⁻¹ s⁻¹] | Blocking ratio at 66.7 nM (%) [4] [%] | EC50 [5] [nM] | TOP MFI [5] | binding result [6] | Binder |
| --- | --- | --- | --- | --- | --- | --- | --- | --- | --- | --- | --- | --- |
| 2.3 | 598 | 9.9 | 30.4 | 70.2 | 6.95 | 0.00314 | 451000 | – | – | – | – | hu021.269 (antibody, V domains shown, humanized from 021c) VH: QVQLQESGPGLVKPSQTLSLTCTVSGYSITSGYYWNWIRQHPGNKLEWIGDISYDGGNNYNPSLKNRVTISRDTSKNQFSLKLSSVTAADTAVYYCARDITLTGAMDYWGQGTTVTVSS VL: EIVLTQSPATLSLSPGERATLSCRASESVDNYGISFMHWYQQKPGQAPRLLIYRASNRESGIPARFSGSGSRTDFTLTISSLEPEDFAVYYCQQSNKDPYTFGQGTKLEIK |
| 0.4 | 669 | 20 | 40.3 | 98.5 | 3.57 | 0.00313 | 877000 | – | – | – | – | hu021.279 (antibody, V domains shown, humanized from 021c; also called hu21.279) VH: QIQLQESGPGLVKPGQTLSLTCTVSGYSITSGYYWTWIRQHPGNKLEWIGDISYDAGNNYNPSLKNRITISRDTSKNQFSLKLSSVTAEDTATYYCARDITLTGAMDYWGQGTTVTVSS VL: EIVLTQSPATLSLSPGERATLSCRASESVDNYGISFMHWYQQKPGQAPRLLIYRASNLESGIPARFSGSGSGTDFTLTISSLEPEDFAVYYCQQSNKDPYTFGQGTKLEIK |
| 1.8 | 586 | 4.6 | 23.9 | 71.5 | – | – | – | – | – | – | – | hu021.212 (antibody, V domains shown, humanized from 021c) VH: QVQLQESGPGLVKPSQTLSLTCTVSGYSISSGYYWNWIRQHPGNKLEWIGDISYEGGNNYNPSLKNRVTISRDTSKNQFSLKLSSVTAADTAVYYCARDITLTGAMDYWGQGTTVTVSS VL: EIVLTQSPATLSLSPGERATLSCRASESVDNYGISFMHWYQQKPGQAPRLLIYRASNLETGIPARFSGSGSRTDFTLTISSLEPEDFAVYYCQQSNKDPYTFGQGTKLEIK |
| – | – | – | – | – | – | – | – | 39.3 | 1.7 | 267 | no binding (tested: about 300 nM) | BAP-050 (antibody, V domains shown, also called BAP-50) VH: QIQLVQSGPELKKPGETVKISCKASGFTLTNYGMNWVRQTPGKGLKWMGWINTDTGEPTYADDFKGRFAFSLETSASTASLQINNLKNADTATYFCARNPPYYYGTNNAEAMDYWGQGTAVTVSS VL: DIQMTQTTSSLSASLGDRVTISCSSSQDISNYLNWYQQKPDGTVKVLIYYTSTLHLGVPSRFSGSGSGTDYSLTISNLELEDIATYYCQQYYNLPWTFGGGTKLEIK |
